Measurements published in patent US20250213707A1, “COMPOUND FOR INCREASING EFFICACY OF ONCOLYTIC VIRUSES” (ABLEVIA BIOTECH GMBH, priority 2022, published 2025).

B1: … (peptide)
peptide: SCRGNESALW
modifications: not checked
B2: … (peptide)
peptide: ESALWDCKHDGWG
modifications: not checked
B3: … (peptide)
peptide: VQEEWGTVCNNGW
modifications: not checked
B4: … (peptide)
peptide: RGNESALWDC
modifications: not checked
B5: … (peptide)
peptide: NESALWDCKHDGW
modifications: not checked
B6: … (peptide)
peptide: ALWDCKHDGW
modifications: not checked
B7: … (peptide)
peptide: QEEWGTVCNNGWS
modifications: not checked
B8: … (peptide)
peptide: WGTVCNNGWSMEA
modifications: not checked
B9: ESALWDC (peptide)
peptide: ESALWDC
modifications: not checked
B10: … (peptide)
peptide: EWGTVCNNGWSME
modifications: not checked
B11: … (peptide)
peptide: CSGRVEVKVQEEW
modifications: not checked
B12: … (peptide)
peptide: WGTVCNNGWS
modifications: not checked
B13: … (peptide)
peptide: EWGTVCNNGW
modifications: not checked
B14: … (peptide)
peptide: CRGNESALWD
modifications: not checked
B15: … (peptide)
peptide: EEWGTVCNNGWSM
modifications: not checked
B16: … (peptide)
peptide: DHVSCRGNESALW
modifications: not checked
B17: … (peptide)
peptide: VSCRGNESALWDC
modifications: not checked

The binders below were run against mAb Mac2-158 (assay: circular peptide array).
B1 was tested, and the rank of binding signal was 3 rank. B2 showed a rank of binding signal of 17 rank. Work on B3 yielded a rank of binding signal of 18 rank. With B4 the rank of binding signal was 2 rank. B5 gave a rank of binding signal of 13 rank. B6 was tested, and the rank of binding signal was 6 rank. B7 gave a rank of binding signal of 9 rank. In the case of B8, the rank of binding signal is reported as 12 rank. B9 was tested, and the rank of binding signal was 1 rank. Binder B10 has a rank of binding signal of 4 rank. For B11, the rank of binding signal was 7 rank. With B12 the rank of binding signal was 20 rank. Work on B13 yielded a rank of binding signal of 19 rank. B14 was tested, and the rank of binding signal was 11 rank. B15 showed a rank of binding signal of 14 rank. For B16, the rank of binding signal was 8 rank. In the case of B17, the rank of binding signal is reported as 5 rank.
